In the FLAb antibody collection (doi:10.7554/elife.23156):

B1: scFv; the commonest letter at each place (parent)
chain 1: EVKLDETGGGLVQPGRPMKLSCVASGFTFSDYWMNWVRQSPEKGLEWVAQIRNKPYNYETYYSDSVKGRFTISRDDSKSSVYLQMNNLRVEDMGIYYCTGSYYGMDYWGQGTSVTVS
chain 2: DVVMTQTPLSLPVSLGDQASISCRSSQSLVHSNGNTYLRWYLQKPGQSPKVLIYKVSNRFSGVPDRFSGSGSGTDFTLKISRVEAEDLGVYFCSQSTHVPWTFGGGTKLEIK

Tests used:
[1] = variants of: B1; test: Kd (Tite-Seq); conditions: with fluorescein; format: scFv 4-4-20, heavy + light
[2] = variants of: B1; test: yeast surface expression (ratio to wild type); higher = more expressed; conditions: format: scFv 4-4-20, heavy + light

With chain 1 S101D Y102P the Kd [1] was at least 10 µM and the yeast surface expression [2] was 0.719.

With chain 1 G100H S101G the Kd [1] was at least 10 µM and the yeast surface expression [2] was 0.649.

chain 1 Y32W M34N showed a Kd [1] of 0.205 µM and a yeast surface expression [2] of 0.386.

In the case of chain 1 D31S M34C N35Y, the Kd [1] is reported as at least 10 µM and the yeast surface expression [2] is reported as 0.927.

chain 1 Y103W W108S showed a Kd [1] of at least 10 µM and a yeast surface expression [2] of 0.526.

For chain 1 M34L, the Kd [1] was 0.00142 µM and the yeast surface expression [2] was 0.971.

chain 1 M34G showed a Kd [1] of 1.23 µM and a yeast surface expression [2] of 0.682.

Work on chain 1 S30D W36R yielded a Kd [1] of at least 10 µM and a yeast surface expression [2] of 2.14.

chain 1 G100C W108L showed a Kd [1] of 0.000389 µM and a yeast surface expression [2] of 0.653.

For chain 1 D106T G109M, the Kd [1] was at least 10 µM and the yeast surface expression [2] was 0.285.

In the case of chain 1 W108L G109R, the Kd [1] is reported as at least 10 µM and the yeast surface expression [2] is reported as 0.296.

With chain 1 G104T W108F the Kd [1] was at least 10 µM and the yeast surface expression [2] was 0.329.

Variant chain 1 S30M Y32H has a Kd [1] of 0.0729 µM and a yeast surface expression [2] of 0.872.

For chain 1 D106M W108H, the Kd [1] was at least 10 µM and the yeast surface expression [2] was 0.556.

chain 1 G100Q Y103R D106L gave a Kd [1] of at least 10 µM and a yeast surface expression [2] of 0.235.

Variant chain 1 G104I G109K has a Kd [1] of at least 10 µM and a yeast surface expression [2] of 0.246.

In the case of chain 1 Y103M W108Q, the Kd [1] is reported as 0.0896 µM and the yeast surface expression [2] is reported as 0.547.

chain 1 G100I Y103C M105Y showed a Kd [1] of at least 10 µM and a yeast surface expression [2] of 0.694.

chain 1 Y107N G109P gave a Kd [1] of at least 10 µM and a yeast surface expression [2] of 0.28.

In the case of chain 1 Y107N G109K, the Kd [1] is reported as at least 10 µM and the yeast surface expression [2] is reported as 0.306.

chain 1 S101D D106N gave a Kd [1] of at least 10 µM and a yeast surface expression [2] of 0.813.

chain 1 G100V Y103F showed a Kd [1] of 0.876 µM and a yeast surface expression [2] of 0.679.

Variant chain 1 F29G S30N has a Kd [1] of at least 10 µM and a yeast surface expression [2] of 0.933.

Work on chain 1 G100V S101H yielded a Kd [1] of at least 10 µM and a yeast surface expression [2] of 0.872.

In the case of chain 1 W33S W36D, the Kd [1] is reported as at least 10 µM and the yeast surface expression [2] is reported as 0.562.

chain 1 G100F G109K gave a Kd [1] of at least 10 µM and a yeast surface expression [2] of 0.265.

In the case of chain 1 S101H, the Kd [1] is reported as at least 10 µM and the yeast surface expression [2] is reported as 0.737.

In the case of chain 1 S101R, the Kd [1] is reported as at least 10 µM and the yeast surface expression [2] is reported as 0.731.

With chain 1 S101P the Kd [1] was at least 10 µM and the yeast surface expression [2] was 0.244.

chain 1 F29I M34T gave a Kd [1] of at least 10 µM and a yeast surface expression [2] of 0.54.

In the case of chain 1 D106R G109H, the Kd [1] is reported as at least 10 µM and the yeast surface expression [2] is reported as 0.486.

chain 1 F29C D31M gave a Kd [1] of at least 10 µM and a yeast surface expression [2] of 0.669.

With chain 1 S101Q G104P the Kd [1] was at least 10 µM and the yeast surface expression [2] was 0.539.

chain 1 F29R V37P showed a Kd [1] of at least 10 µM and a yeast surface expression [2] of 0.289.

chain 1 S101C Y107C gave a Kd [1] of at least 10 µM and a yeast surface expression [2] of 0.493.

Variant chain 1 S101C Y107T has a Kd [1] of at least 10 µM and a yeast surface expression [2] of 0.62.

With chain 1 S101I M105N the Kd [1] was at least 10 µM and the yeast surface expression [2] was 0.482.

For chain 1 Y102L G104W, the Kd [1] was at least 10 µM and the yeast surface expression [2] was 0.263.

In the case of chain 1 Y102L G104C, the Kd [1] is reported as at least 10 µM and the yeast surface expression [2] is reported as 0.323.

Variant chain 1 F29A M34R has a Kd [1] of at least 10 µM and a yeast surface expression [2] of 1.01.

For chain 1 F29V W36S, the Kd [1] was at least 10 µM and the yeast surface expression [2] was 0.52.

With chain 1 Y32Q W33V N35E the Kd [1] was 7.72 µM and the yeast surface expression [2] was 1.51.

chain 1 W33Q N35W showed a Kd [1] of at least 10 µM and a yeast surface expression [2] of 1.01.

Work on chain 1 W33Q N35Y yielded a Kd [1] of at least 10 µM and a yeast surface expression [2] of 0.315.

Variant chain 1 W33M V37P has a Kd [1] of at least 10 µM and a yeast surface expression [2] of 0.458.

Work on chain 1 F29Q W36H yielded a Kd [1] of at least 10 µM and a yeast surface expression [2] of 0.405.

In the case of chain 1 G100V G109L, the Kd [1] is reported as at least 10 µM and the yeast surface expression [2] is reported as 0.256.

In the case of chain 1 S30E M34T W36T, the Kd [1] is reported as at least 10 µM and the yeast surface expression [2] is reported as 0.353.

With chain 1 G100F the Kd [1] was at least 10 µM and the yeast surface expression [2] was 0.93.

Work on chain 1 T28R V37P yielded a Kd [1] of at least 10 µM and a yeast surface expression [2] of 1.99.

Work on chain 1 F29E M34E yielded a Kd [1] of at least 10 µM and a yeast surface expression [2] of 0.455.

chain 1 G104L G109K gave a Kd [1] of at least 10 µM and a yeast surface expression [2] of 0.179.

In the case of chain 1 D106V W108N, the Kd [1] is reported as at least 10 µM and the yeast surface expression [2] is reported as 0.371.

In the case of chain 1 Y103I G104P G109M, the Kd [1] is reported as at least 10 µM and the yeast surface expression [2] is reported as 0.279.

Work on chain 1 D106S W108V yielded a Kd [1] of 0.55 µM and a yeast surface expression [2] of 0.859.

chain 1 Y102A D106L showed a Kd [1] of at least 10 µM and a yeast surface expression [2] of 0.691.

Variant chain 1 S30Y W33L has a Kd [1] of at least 10 µM and a yeast surface expression [2] of 0.755.

Work on chain 1 D31G W33Q yielded a Kd [1] of at least 10 µM and a yeast surface expression [2] of 0.657.
